Substrate in series [1]: NC(=O)C[C@H](N)C(=O)O
The series is described as follows: ITC single-injection method. Format: biochemical, Escherichia coli. As to conditions: PBS pH 7.4, 37 °C. From the text:
ITC single-injection method on EcAII

Substrate in series [2]: COC(=O)[C@H](Cc1ccccc1)NC(=O)C[C@H](N)C(=O)O
As to the kind of experiment: purified protein. Format: biochemical, Escherichia coli. To be noted: PBS pH 7.4, 37 °C, 600 µM α-ketoglutarate, 190 µM NADH.

Substrate in series [3]: NC(=O)C[C@H](N)C(=O)O
The series is described as follows: Nessler ammonia assay. Type of series: biochemical, Escherichia coli. To be noted: PBS pH 7.4, 37 °C. From the text: Nessler ammonia assay on EcAIII

Substrate in series [4]: NC(=O)C[C@H](N)C(=O)O
The series is described as follows: purified protein. To be noted: PBS pH 7.4, 37 °C.

Substrate in series [5]: NC(=O)C[C@H](N)C(=O)O
As to the kind of experiment: Nessler ammonia assay. As to conditions: PBS pH 7.4, 37 °C. Format: biochemical, Rhizobium etli. From the text:
Nessler ammonia assay on ReAV

B1: EcAII (Escherichia coli K-12) (protein)
chain: LPNITILATGGTIAGGGDSATKSNYTVGKVGVENLVNAVPQLKDIANVKGEQVVNIGSQDMNDNVWLTLAKKINTDCDKTDGFVITHGTDTMEETAYFLDLTVKCDKPVVMVGAMRPSTSMSADGPFNLYNAVVTAADKASANRGVLVVMNDTVLDGRDVTKTNTTDVATFKSVNYGPLGYIHNGKIDYQRTPARKHTSDTPFDVSKLNELPKVGIVYNYANASDLPAKALVDAGYDGIVSAGVGNGNLYKSVFDTLATAAKTGTAVVRSSRVPTGATTQDAEVDDAKYGFVASGTLNPQKARVLLQLALTQTKDPQQIQQIFNQY
notes: synthetic gene, N-terminal 6xHis-tag (pET28a or pMSCG92), expressed in E. coli BL21 (DE3) deltaansA/deltaansB; tetramer
A word on the Km: it is the substrate concentration at which the rate is half of its maximum. In general, kcat refers to the number of substrate molecules converted per active site and unit of time at saturation. One may read the kcat/Km as the turnover number divided by the Michaelis constant. B1: in series [1], the Km is 0.012 ± 0.002 mM, the kcat is 39 ± 1 s⁻¹ and the kcat/Km was determined as 3.3e+06 ± 561000 M⁻¹ s⁻¹.

B2: EcAIII (Escherichia coli K-12) (protein)
chain 1: GKAVIAIHGGAGAISRAQMSLQQELRYIEALSAIVETGQKMLEAGESALDVVTEAVRLLEECPLFNAGIGAVFTRDETHELDACVMDGNTLKAGAVAGVSHLRNPVLAARLVMEQSPHVMMIGEGAENFAFARGMERVSPEIFSTSLRYEQLLAARKEGATVLDHSGAPLDEKQKMG
chain 2: TVGAVALDLDGNLAAATSTGGMTNKLPGRVGDSPLVGAGCYANNASVAVSCTGTGEVFIRALAAYDIAALMDYGGLSLAEACERVVMEKLPALGGSGGLIAIDHEGNVALPFNTEGMYRAWGYAGDTPTTGIYREKGDTVATQ
notes: synthetic gene, N-terminal 6xHis-tag (pET28a or pMSCG92), expressed in E. coli BL21 Gold (DE3); precursor self-matures into alpha and beta subunits, (alpha-beta)2 heterotetramer
As for B2, in the series “purified protein [2]”, the Km was determined as 3.57 ± 0.58 mM, the kcat was determined as 0.112 ± 0.007 s⁻¹ and the kcat/Km worked out at 31 ± 7 M⁻¹ s⁻¹. For the same protein, in “Nessler ammonia assay [3]”, the Km is on record as 17.66 ± 1.87 mM, the kcat worked out at 5.77 ± 0.19 s⁻¹ and the kcat/Km turned out to be 330 ± 100 M⁻¹ s⁻¹.

B3: ReAIV (Rhizobium etli CFN 42) (protein)
chain: MTNPVTVEVTRGLLVESRHRGAVAVVDGDGKLFFSLGDIDTAVFPRSACKAMQALPLVESGAADAYGFGDKELALACASHNGEEEHVALAASMLSRAGRNVEALECGAHWSMNQKVLIQQARSLDAPTALHNNCSGKHAGFICACCHRDIDPKGYVGYEHPLQVEIRAVMERLTGAVLGAESCGTDGCSIPTYAMPLRNLAHGFARMATGTGLEPLRAKASRRLIEACMAEPFYVAGSGRACTKLMQIAPGRIFVKTGAEGVFCAAIPEKGIGISLKSEDGATRAAEAMVAATLARFFETEETVHAALMAFAAMPMRNWNGIHVGDIRATSVFSA
Take B3: in the series “purified protein [4]”, the Km was 7.16 ± 2.03 mM, the turnover number (kcat) came to 9.98 s⁻¹ and the kcat/Km turned out to be 1390 M⁻¹ s⁻¹.

B4: ReAV (Rhizobium etli CFN 42) (protein)
chain: MTPSEDFVVTDRGGIVENSHRVHAAVVDAKGRLLYALGNPTRMTLARSAAKPAQALAILETEGVAGYGFDDADIALMCASHSSEDRHIARTRAMLSKIKAEEADLRCGGHPSLSEMVNRSWIKQDFIPTAVCSNCSGKHVGMLAGARAIGAGTDGYHLPDHPMQGRVKRTVAELCDLDAGDVEWGTDGCNLPTPAFPLDRLGRIYAKLASAADGSDAGEGQSTRCAALAHIFRAMARHPEMVAGEGRYCTMLMRAFDGALVGKLGADASYAIGVRASDATRQLGTDGALGISVKIEDGNLEMLYAVVTELLERLGIGSPDVRSQLASFHHPQRVNTMGVTTGGVSFPFKLRGSKSNVDDPRLAAVAR
notes: gene in pET151D-TOPO, 6xHis-tagged, expressed in E. coli BL21 Gold (DE3); homodimer, Zn in active site
For the protein B4, in the series “Nessler ammonia assay [5]”, the Km amounted to 24.81 ± 3.22 mM, the turnover number (kcat) worked out at 28.5 ± 1.6 s⁻¹ and the specificity constant (kcat/Km) turned out to be 1150 ± 210 M⁻¹ s⁻¹.
